In publication PMC2739136 one finds heterodimer formation (% of wild type) (% of wild type) data, which are given here for one protein.

Holding throughout (assay): pull-down
The target in data set [1] is T1, MBP-TraR F161A, P33905.
T1 chain: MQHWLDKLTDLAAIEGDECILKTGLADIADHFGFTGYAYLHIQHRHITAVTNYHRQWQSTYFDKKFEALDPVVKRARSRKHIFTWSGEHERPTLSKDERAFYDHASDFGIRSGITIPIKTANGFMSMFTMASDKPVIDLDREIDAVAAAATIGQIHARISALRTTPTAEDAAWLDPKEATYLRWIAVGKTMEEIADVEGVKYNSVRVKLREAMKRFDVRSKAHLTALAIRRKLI

Data set [2] deals with T2, MBP-TraR A157V, P33905.
T2 chain: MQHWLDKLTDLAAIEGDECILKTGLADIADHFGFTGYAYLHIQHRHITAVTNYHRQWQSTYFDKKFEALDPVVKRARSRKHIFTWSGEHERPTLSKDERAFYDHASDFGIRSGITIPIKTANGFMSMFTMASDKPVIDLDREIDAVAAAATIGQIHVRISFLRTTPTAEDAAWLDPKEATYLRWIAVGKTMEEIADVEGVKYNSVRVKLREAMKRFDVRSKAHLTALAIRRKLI

Data set [3] deals with T3, MBP-TraR L5M, P33905.
T3 chain: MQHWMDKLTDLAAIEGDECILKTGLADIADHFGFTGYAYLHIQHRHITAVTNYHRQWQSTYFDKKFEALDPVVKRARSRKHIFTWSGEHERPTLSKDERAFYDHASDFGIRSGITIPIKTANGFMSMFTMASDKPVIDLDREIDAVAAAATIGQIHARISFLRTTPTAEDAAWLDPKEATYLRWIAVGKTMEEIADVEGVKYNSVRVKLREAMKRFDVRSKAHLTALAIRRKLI

Data set [4] has as its target T4, MBP-TraR Q154E, P33905.
T4 chain: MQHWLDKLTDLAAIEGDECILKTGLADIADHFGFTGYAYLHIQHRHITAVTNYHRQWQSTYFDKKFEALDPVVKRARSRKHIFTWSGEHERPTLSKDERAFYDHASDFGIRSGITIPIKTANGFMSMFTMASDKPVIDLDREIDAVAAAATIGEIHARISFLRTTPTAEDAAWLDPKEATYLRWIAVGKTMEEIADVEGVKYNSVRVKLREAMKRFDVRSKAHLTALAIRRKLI

In data set [5] the target is T5, MBP-TraR A149E, P33905.
T5 chain: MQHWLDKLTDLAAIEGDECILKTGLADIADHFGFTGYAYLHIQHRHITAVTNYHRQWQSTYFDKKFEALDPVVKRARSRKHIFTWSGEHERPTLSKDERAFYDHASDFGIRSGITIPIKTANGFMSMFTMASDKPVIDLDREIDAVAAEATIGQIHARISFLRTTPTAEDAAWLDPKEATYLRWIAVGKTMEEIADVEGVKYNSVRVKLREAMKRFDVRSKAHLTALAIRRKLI

The target in data set [6] is T6, MBP-TraR K119A, P33905.
T6 chain: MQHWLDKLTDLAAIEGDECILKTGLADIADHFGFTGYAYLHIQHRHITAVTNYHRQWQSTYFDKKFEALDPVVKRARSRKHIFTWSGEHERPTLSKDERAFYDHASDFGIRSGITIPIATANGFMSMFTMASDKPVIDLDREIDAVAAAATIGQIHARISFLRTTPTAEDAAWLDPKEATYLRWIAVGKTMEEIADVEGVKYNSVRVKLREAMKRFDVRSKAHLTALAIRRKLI

In data set [7] the target is T7, MBP-TraR G153E, P33905.
T7 chain: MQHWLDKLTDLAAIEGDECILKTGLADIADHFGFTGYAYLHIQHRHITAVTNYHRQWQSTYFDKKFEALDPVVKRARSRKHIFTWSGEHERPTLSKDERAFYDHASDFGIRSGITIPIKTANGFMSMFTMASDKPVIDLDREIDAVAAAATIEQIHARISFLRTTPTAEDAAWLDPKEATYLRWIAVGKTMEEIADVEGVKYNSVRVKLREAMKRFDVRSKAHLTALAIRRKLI

Data set [8] deals with T8, MBP-TraR F161K, P33905.
T8 chain: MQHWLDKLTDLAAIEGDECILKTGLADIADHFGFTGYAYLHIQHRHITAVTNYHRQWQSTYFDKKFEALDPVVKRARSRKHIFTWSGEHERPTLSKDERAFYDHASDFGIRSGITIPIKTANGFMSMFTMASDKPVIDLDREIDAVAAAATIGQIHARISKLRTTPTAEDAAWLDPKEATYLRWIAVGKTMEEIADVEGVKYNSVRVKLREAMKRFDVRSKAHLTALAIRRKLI

B1: native TraR (wild type) (protein)
chain: MQHWLDKLTDLAAIEGDECILKTGLADIADHFGFTGYAYLHIQHRHITAVTNYHRQWQSTYFDKKFEALDPVVKRARSRKHIFTWSGEHERPTLSKDERAFYDHASDFGIRSGITIPIKTANGFMSMFTMASDKPVIDLDREIDAVAAAATIGQIHARISFLRTTPTAEDAAWLDPKEATYLRWIAVGKTMEEIADVEGVKYNSVRVKLREAMKRFDVRSKAHLTALAIRRKLI
B1: the heterodimer formation (% of wild type) (% of wild type) in data set [1] stood at 49; in data set [2] it was 50; in data set [3], 99; in data set [4], 25; in data set [5], 12; in data set [6] it was 94. In addition, the results for the heterodimer formation (% of wild type) (% of wild type) in data set [7] and in data set [8] were 19 and 39, respectively.
